This is an account of results in patent publication US20190144566A1 (ORUM THERAPEUTICS, published 2019).

This test deals with T1, mCherry (red fluorescence) H-RAS G12V (UniProt P01112 1-186).
T1 construct: Expressed inside NIH3T3 cells, located at the inner cell membrane; also called intracellular H-RAS G12V mutants; not shown: mCherry red fluorescent protein
The experiment in a line: confocal co-localisation in NIH3T3 cells expressing mCherry H-RAS G12V.

B1: cytosol-penetrating antibody (cytotransmab) TMab4 (antibody, V domains shown)
VH: EVQLVESGGGLVQPGGSLRLSCAASGYTFTSYVMHWVRQAPGKGLEWVSAINPYNDGNYYADSVKGRFTISRDNSRKTLYLQMNSLRAEDTAVYYCARGAYKRGYAMDYWGQGTTVTVSS
VL: DLVMTQSPSSLSASVGDRVTITCKSSQSLFNSRTRKNYLAWYQQKPGKAPKLLIYWASTRESGVPSRFSGSGSGTDFTLTISSLQPEDFATYYCQQYYYHMYTFGQGTKVEIKR
notes: Intact IgG-format monoclonal antibody with CH1-hinge-CH2-CH3 and CL; Used as negative control in the RAS assays; also called CT
Regarding B1, the binding result is on record as “no binding (tested: 2 µM)”.
